Assay results from US20260242478A1 (published 2026).
Where no end group is shown, it is not given here.

How the values were obtained:
[1] = target: T1, Anti-PSMA Fab (SEQ ID NOs: 19, 20); experiment: phage ELISA; biotinylated PSMA Fab on neutravidin plate, clonal phage supernatant, anti-M13 HRP detection;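 further: wells preincubated with PSMA antigen in blocking buffer or with blocking buffer only before clonal phage were added for a short incubation, then bound phage detected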
T1 construct: In the phage ELISA the Fab was biotinylated and captured on neutravidin coated plates; also called 006 PSMA Fab
Protocol: (§1) Clonal phage were harvested as crude supernatants and screened via standard ELISAs. […] Prior to the addition of clonal phage. wells were incubated with blocking buffer and PSMA antigen or blocking buffer alone. Without washing or aspirating, clonal phage supernatants were then added to the wells and incubated for a short time. Wells were then washed followed by detection of bound phage using a horse radish conjugated anti-M13 antibody.

[2] = target: T1, Anti-PSMA Fab (SEQ ID NOs: 19, 20); experiment: phage ELISA; biotinylated PSMA Fab on neutravidin plate pre-incubated with PSMA antigen (competitor), anti-M13 HRP detection
Protocol: as §1

[3] = target: T2, Anti-PSMA Fab (SEQ ID NOs: 19, 20); experiment: phage binding ELISA; biotinylated PSMA Fab captured on neutravidin plate, clonal phage supernatant, anti-M13 HRP detection
T2 construct: Biotinylated and captured on neutravidin coated plates in the phage ELISA; also called 006 PSMA Fab
Protocol: as §1

[4] = target: T2, Anti-PSMA Fab (SEQ ID NOs: 19, 20); experiment: phage binding ELISA on captured PSMA Fab; wells pre-incubated with PSMA antigen as competitor
Protocol: as §1

[5] = target: T3, Anti-PSMA Fab (SEQ ID NOs: 19, 20); experiment: phage binding ELISA; biotinylated PSMA Fab on neutravidin plate, clonal phage supernatant, anti-M13 HRP detection;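 further: wells were preincubated with blocking buffer either containing PSMA antigen or without it before crude phage supernatant was added, briefly incubated, then washed prior to detection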
T3 construct: Biotinylated and captured on neutravidin coated plates in the phage ELISA; also called 006 PSMA Fab
Protocol: as §1

[6] = target: T3, Anti-PSMA Fab (SEQ ID NOs: 19, 20); experiment: phage binding ELISA; PSMA Fab on plate pre-incubated with PSMA antigen as competitor, anti-M13 HRP detection;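 further: crude clonal phage supernatants added without washing to wells preincubated with PSMA in blocking buffer, compared with wells receiving blocking buffer only, then bound phage detected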
Protocol: as §1

**Q.** Which results are given for NFHLCTPQWMCTGF (cysteine pairing not given here; also: displayed as fusion to phage pIII, Peptide-180 library clone) [Phage-1997]?
**A.** Phage binding ELISA, Anti-PSMA Fab signal [1]: 1.86; Phage binding ELISA, Anti-PSMA Fab signal in the presence of PSMA [2]: 0.0973

B1: Phage-1979 (peptide)
peptide: LPKWCTPEWMCIGF
notes: tested as crude clonal phage supernatant
**Q.** With B1 as the binder, how does the “Anti-PSMA Fab (SEQ ID NOs: 19, 20) signal” value [3] read?
**A.** 1.89

**Q.** And the “Anti-PSMA Fab signal in the presence of PSMA” value [4]?
**A.** 0.113

B2: Phage-1967 (peptide)
peptide: DVKMCIPAWMCSFD
notes: as for B1
**Q.** For B2, which “Anti-PSMA Fab (SEQ ID NOs: 19, 20) signal” value [3] is on record?
**A.** 1.91

**Q.** What about the “Anti-PSMA Fab signal in the presence of PSMA” value [4] of the same binder?
**A.** 0.0712

B3: Phage-1968 (peptide)
peptide: YIKWCTPSWMCEAS
notes: as for B1
**Q.** How did the “Anti-PSMA Fab (SEQ ID NOs: 19, 20) signal” value [3] turn out when B3 was run?
**A.** 1.9

**Q.** What about the “Anti-PSMA Fab signal in the presence of PSMA” value [4] of the same binder?
**A.** 0.113

B4: Phage-1970 (peptide)
peptide: EFKWCTPSWMCAHL
notes: as for B1
**Q.** For B4, which “Anti-PSMA Fab (SEQ ID NOs: 19, 20) signal” value [3] is on record?
**A.** 1.9

**Q.** And the “Anti-PSMA Fab signal in the presence of PSMA” value [4]?
**A.** 0.128

B5: Phage-1976 (peptide)
peptide: TMHWCIPQWMCETG
notes: as for B1
**Q.** What does the source list for B5?
**A.** Anti-PSMA Fab (SEQ ID NOs: 19, 20) signal [3]: 1.89; Anti-PSMA Fab signal in the presence of PSMA [4]: 0.25

B6: Phage-1969 (peptide)
peptide: VEKWCKPTWMCEMV
notes: as for B1
**Q.** For B6, which “Anti-PSMA Fab (SEQ ID NOs: 19, 20) signal” value [3] is on record?
**A.** 1.9

**Q.** What about the “Anti-PSMA Fab signal in the presence of PSMA” value [4] of the same binder?
**A.** 0.0976

B7: Phage-1974 (peptide)
peptide: LVKWCIPEWMCEVL
notes: as for B1
**Q.** What does the source list for B7?
**A.** Anti-PSMA Fab (SEQ ID NOs: 19, 20) signal [3]: 1.9; Anti-PSMA Fab signal in the presence of PSMA [4]: 0.0751

**Q.** For LEKLCIPSWMCEGM (cysteine pairing not given here; also: displayed as fusion to phage pIII, Peptide-180 library clone) [Phage-2002], which “Phage binding ELISA, Anti-PSMA Fab signal” value [1] is on record?
**A.** 1.85

**Q.** And the “Phage binding ELISA, Anti-PSMA Fab signal in the presence of PSMA” value (shortened to “Phage binding ELISA … of PSMA”) [2]?
**A.** 0.0942

B8: Phage-1977 (peptide)
peptide: MAQWCTPAWMCSGF
notes: as for B1
**Q.** For B8, which “Anti-PSMA Fab (SEQ ID NOs: 19, 20) signal” value [3] is on record?
**A.** 1.89

**Q.** What about the “Anti-PSMA Fab signal in the presence of PSMA” value [4] of the same binder?
**A.** 0.0721

**Q.** What does the source list for IDKWCIPAWMCVSN (cysteine pairing not given here; also: displayed as fusion to phage pIII, Peptide-180 library clone) [Phage-1998]?
**A.** Phage binding ELISA, Anti-PSMA Fab signal [1]: 1.86; Phage binding ELISA, Anti-PSMA Fab signal in the presence of PSMA [2]: 0.0815

**Q.** How did the “Phage binding ELISA, Anti-PSMA Fab signal” value [1] turn out when EVKWCTPAWMCEGF (cysteine pairing not given here; also: displayed as fusion to phage pIII, Peptide-180 library clone) [Phage-2001] was run?
**A.** 1.85

**Q.** What about the “Phage binding ELISA … of PSMA” value [2] of the same binder?
**A.** 0.0605

**Q.** Which “Phage binding ELISA, Anti-PSMA Fab signal” value [1] does the source give for FEKWCVPIWMCRDS (cysteine pairing not given here; also: displayed as fusion to phage pIII, Peptide-180 library clone) [Phage-2003] here?
**A.** 1.85

**Q.** And the “Phage binding ELISA … of PSMA” value [2]?
**A.** 0.161

B9: Phage-1980 (peptide)
peptide: LDKWCIPPWMCYSI
notes: as for B1
**Q.** B9 was tested. Which “Anti-PSMA Fab (SEQ ID NOs: 19, 20) signal” value [3] did it give?
**A.** 1.89

**Q.** And the “Anti-PSMA Fab signal in the presence of PSMA” value [4]?
**A.** 0.0602

**Q.** How did the “Phage binding ELISA, Anti-PSMA Fab (SEQ ID NOs: 19, 20) signal” value [5] turn out when LEMWCVPAWMCSGF [Phage-1964] was run?
**A.** 1.91

**Q.** And the “Phage binding ELISA … of PSMA” value [6]?
**A.** 0.0771

**Q.** With LVKWCTPAWMCEFI [Phage-1963] as the binder, how does the “Phage binding ELISA, Anti-PSMA Fab (SEQ ID NOs: 19, 20) signal” value [5] read?
**A.** 1.91

**Q.** And the “Phage binding ELISA … of PSMA” value [6]?
**A.** 0.0856

**Q.** For VVKWCLPPWMCTDF [Phage-1962], which “Phage binding ELISA, Anti-PSMA Fab (SEQ ID NOs: 19, 20) signal” value [5] is on record?
**A.** 1.91

**Q.** And the “Phage binding ELISA … of PSMA” value [6]?
**A.** 0.0829

**Q.** FEKWCIPDWMCQVM [Phage-1960] was tested. Which “Phage binding ELISA, Anti-PSMA Fab (SEQ ID NOs: 19, 20) signal” value [5] did it give?
**A.** 1.91

**Q.** And the “Phage binding ELISA … of PSMA” value [6]?
**A.** 0.0817

B10: Phage-2007 (peptide)
peptide: QDMWCIPPWMCWAQ
modifications: cysteine pairing not given here; also: fused to phage pIII, pIII sequence and linker not given here
notes: Peptide-180 library clone
**Q.** What does the source list for B10?
**A.** Phage binding ELISA, Anti-PSMA Fab signal [1]: 1.85; Phage binding ELISA, Anti-PSMA Fab signal in the presence of PSMA [2]: 0.126

B11: Phage-1966 (peptide)
peptide: WDKWCRPAWMCEST
notes: as for B1
**Q.** With B11 as the binder, how does the “Anti-PSMA Fab (SEQ ID NOs: 19, 20) signal” value [3] read?
**A.** 1.91

**Q.** What about the “Anti-PSMA Fab signal in the presence of PSMA” value [4] of the same binder?
**A.** 0.0851

B12: Phage-1973 (peptide)
peptide: FDKWCIPEWMCAVL
notes: as for B1
**Q.** Which “Anti-PSMA Fab (SEQ ID NOs: 19, 20) signal” value [3] does the source give for B12 here?
**A.** 1.9

**Q.** What about the “Anti-PSMA Fab signal in the presence of PSMA” value [4] of the same binder?
**A.** 0.0682

B13: Phage-2006 (peptide)
peptide: LPHWCTPLWMCEGF
modifications: cysteine pairing not given here; also: fused to phage pIII, pIII sequence and linker not given here
notes: Peptide-180 library clone
**Q.** B13 was tested. Which “Phage binding ELISA, Anti-PSMA Fab signal” value [1] did it give?
**A.** 1.85

**Q.** What about the “Phage binding ELISA … of PSMA” value [2] of the same binder?
**A.** 0.0658

B14: Phage-1971 (peptide)
peptide: VMNWCTPVWMCQGF
notes: as for B1
**Q.** Which “Anti-PSMA Fab (SEQ ID NOs: 19, 20) signal” value [3] does the source give for B14 here?
**A.** 1.9

**Q.** What about the “Anti-PSMA Fab signal in the presence of PSMA” value [4] of the same binder?
**A.** 0.115

B15: Phage-1978 (peptide)
peptide: SERWCIPTWMCQET
notes: as for B1
**Q.** Which “Anti-PSMA Fab (SEQ ID NOs: 19, 20) signal” value [3] does the source give for B15 here?
**A.** 1.89

**Q.** And the “Anti-PSMA Fab signal in the presence of PSMA” value [4]?
**A.** 0.0819

B16: Phage-1972 (peptide)
peptide: PWHWCIPEWMCAEY
notes: as for B1
**Q.** With B16 as the binder, how does the “Anti-PSMA Fab (SEQ ID NOs: 19, 20) signal” value [3] read?
**A.** 1.9

**Q.** And the “Anti-PSMA Fab signal in the presence of PSMA” value [4]?
**A.** 0.083

**Q.** For HEMWCRPAWMCDGF (cysteine pairing not given here; also: displayed as fusion to phage pIII, Peptide-180 library clone) [Phage-2000], which “Phage binding ELISA, Anti-PSMA Fab signal” value [1] is on record?
**A.** 1.85

**Q.** And the “Phage binding ELISA … of PSMA” value [2]?
**A.** 0.0635

**Q.** What does the source list for IDNWCRPLWMCHGF (cysteine pairing not given here; also: displayed as fusion to phage pIII, Peptide-180 library clone) [Phage-2004]?
**A.** Phage binding ELISA, Anti-PSMA Fab signal [1]: 1.85; Phage binding ELISA, Anti-PSMA Fab signal in the presence of PSMA [2]: 0.0907

**Q.** Which results are given for EGIWCTPAWMCMGF [Phage-1961]?
**A.** Phage binding ELISA, Anti-PSMA Fab (SEQ ID NOs: 19, 20) signal [5]: 1.91; Phage binding ELISA, Anti-PSMA Fab signal in the presence of PSMA [6]: 0.0798

B17: Phage-2005 (peptide)
peptide: VTKWCIPEWMCEYI
modifications: cysteine pairing not given here; also: fused to phage pIII, pIII sequence and linker not given here
notes: Peptide-180 library clone
**Q.** Which “Phage binding ELISA, Anti-PSMA Fab signal” value [1] does the source give for B17 here?
**A.** 1.85

**Q.** And the “Phage binding ELISA … of PSMA” value [2]?
**A.** 0.0658

**Q.** MVKWCKPAWMCDVI [Phage-1965] was tested. Which “Phage binding ELISA, Anti-PSMA Fab (SEQ ID NOs: 19, 20) signal” value [5] did it give?
**A.** 1.91

**Q.** What about the “Phage binding ELISA … of PSMA” value [6] of the same binder?
**A.** 0.078

**Q.** What does the source list for WDKWCIPEWMCESM [Phage-1959]?
**A.** Phage binding ELISA, Anti-PSMA Fab (SEQ ID NOs: 19, 20) signal [5]: 1.92; Phage binding ELISA, Anti-PSMA Fab signal in the presence of PSMA [6]: 0.0718

**Q.** Which “Phage binding ELISA, Anti-PSMA Fab (SEQ ID NOs: 19, 20) signal” value [5] does the source give for DGKWCIPAWMCVDM [Phage-1958] here?
**A.** 1.92

**Q.** And the “Phage binding ELISA … of PSMA” value [6]?
**A.** 0.0672

B18: Phage-1975 (peptide)
peptide: FDNWCKPSWMCAGL
notes: as for B1
**Q.** With B18 as the binder, how does the “Anti-PSMA Fab (SEQ ID NOs: 19, 20) signal” value [3] read?
**A.** 1.89

**Q.** What about the “Anti-PSMA Fab signal in the presence of PSMA” value [4] of the same binder?
**A.** 0.0863

**Q.** Which “Phage binding ELISA, Anti-PSMA Fab signal” value [1] does the source give for IPKWCTPAWMCESM (cysteine pairing not given here; also: displayed as fusion to phage pIII, Peptide-180 library clone) [Phage-1999] here?
**A.** 1.86

**Q.** What about the “Phage binding ELISA … of PSMA” value [2] of the same binder?
**A.** 0.0609
